Laboratory results: the supplement of paper PMC10567573

B1: ZNF8 (parent)
chain: RIHTGERPYMCKECGKAFSQNSSL
B2: CD69 (parent)
chain: FVAENSSLHPESGQENDATSPHFS

Variants of: B1
Test: protein stability index of a GFP-peptide fusion (GPS, HEK-293T) (PSI 1-6); higher = more stable
Settings: c terminus: a fixed tail appended
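Also: lentivirally expressed fusions sorted by FACS into six bins by GFP to DsRed ratio, PSI derived from sequencing read proportions per bin multiplied by bin number.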

Protein stability index of substitutions, site by site:
I2: A 2.41, D 2.43, K 2.51, L 2.35, C 2.85, H 2.38, G 2.78, P 3.72, N 3.13, F 2.5, M 2.44, E 2.87
R1: M 3.04, E 2.87, V 2.88, C 4.88, D 2.71, H 3.56, Y 2.2, A 2.93, I 2.77, N 2.85, G 3.34, S 3.19, L 2.63, Q 2.75, W 2.27, T 3.22, F 1.97, P 3.17, K 3.01

Variants of: B2
Test: as above
Settings: c terminus: a fixed tail appended

Protein stability index, by site and new letter:
P10: T 3.13, I 3.23, M 2.46, V 3.22, C 2.84, N 3.63, Q 3.45, L 2.9, K 2.98, H 3.61, D 3.32, Y 3.15, F 2.48, A 3.06, G 3.29, E 3.54, R 2.56, W 2.43, S 2.52
P21: K 3.25, M 2.56, A 2.62, D 3.6, I 2.65, W 2.9, L 2.33, H 2.46, Y 2.62, G 3.04, R 2.56, Q 3.15, N 2.6, F 2.91, E 3.97, S 2.98, V 2.52, T 2.86, C 2.64
S12: P 3.39, W 1.83, G 2.9, Q 2.88, H 2.64, L 2.46, Y 2.39, D 3.25, R 2.38, K 2.66, E 3.83, A 2.99, T 3.14, I 2.86, V 3.42, F 2.39, M 2.87, C 2.73, N 3.05
H22: G 3.33, Q 3.76, E 3.82, F 1.66, A 3.21, C 2.65, N 3.21, R 3.18, L 2.64, V 3.54, M 2.71, Y 1.72, W 2.72, T 3.11, D 3.79, P 3.19, S 2.86, K 3.24, I 2.45
E11: S 2.52, H 2.36, I 2.39, V 2.38, R 2.12, C 1.96, F 1.82, Q 2.48, D 3.22, Y 2.22, L 1.6, W 2.05, K 2.35, T 2.84, P 2.55, N 3.21, A 2.51, G 2.46, M 2.36
F23: C 3.19, S 4.12, W 2.02, R 3.22, G 3.58, H 3.56, D 4.53, K 4.07, A 3.55, Y 3.09, N 3.8, E 4.17, M 3.56, Q 3.8, V 3.59, P 3.37, T 3.61, I 3.46, L 3.55
T19: V 2.77, R 2.92, D 3.75, W 2.75, G 3.24, P 2.84, Y 2.02, S 2.84, H 3.19, I 3.16, F 1.97, A 3.35, E 4.03, C 2.5, N 2.9, M 2.73, L 2.6, Q 3.16, K 2.37
S24: G 3.13, I 2.19, L 3.04, F 2.27, D 3.9, K 2.91, C 2.5, T 3.27, N 2.92, R 1.77, E 3.75, P 2.57, H 3.55, V 2.77, Q 2.78, M 2.09, A 3.55, Y 2.38
G13: D 3.4, M 3.38, K 3.24, V 3.21, E 3.41, N 3.33, S 3.31, C 2.89, A 2.69, R 2.49, P 3.32, Q 3.09, H 2.46, W 1.97, Y 3.06, T 3.59, I 2.61, F 2.69, L 2.49
H9: R 2.79, M 3.08, K 3.62, E 4.49, F 2.95, V 3.03, D 3.8, N 2.8, W 1.61, Q 3.5, T 3.7, P 3.6, I 2.9, S 3.32, G 3.4, L 2.96, A 3.38, Y 2.88, C 3.15
N16: H 3, Y 2.72, V 3.13, W 2.11, F 2.81, C 2.73, L 2.81, I 3.01, T 2.8, E 3.05, S 3.19, A 2.51, Q 3.37, P 2.6, K 3.29, D 3.61, M 2.56, G 2.88, R 2.66
A18: E 3.87, C 2.9, V 3.22, G 3.03, W 2.24, H 2.45, M 2.73, K 2.61, I 2.71, N 3.07, Q 3.53, T 2.79, D 3.22, R 2.57, L 2.85, S 2.91, Y 2.23, P 3.19, F 2.67
E15: H 2.76, A 2.88, P 2.32, T 2.78, N 2.6, G 2.59, D 3.06, S 2.11, F 1.91, C 2.57, R 2.19, Y 2.08, Q 3.05, K 2.76, L 2.12, V 2.67, W 1.95, M 2.83, I 2.51
Q14: E 3.51, C 2.95, T 2.99, F 2.84, R 2.76, Y 2.4, V 3.2, I 3.04, N 2.87, W 2.48, A 3.06, H 3.47, K 3.13, M 3.28, P 2.66, L 2.87, D 3.93, S 2.64, G 2.58
D17: E 2.82, S 2.73, Q 2.32, G 2.65, W 1.92, A 3.79, I 2.69, F 2.05, V 2.36, L 2.56, R 2.24, C 2.31, Y 2.18, M 2.46, N 2.95, P 2.76, K 2.2, H 2.97, T 2.54
S20: W 2.09, F 2.32, N 2.71, T 3.12, Y 2.11, A 3.16, D 4.01, P 2.54, V 2.68, C 2.78, M 2.78, L 3.02, G 3.17, I 3.02, H 2.5, Q 3.15, R 2.45, K 2.71, E 3.75
